Assay results: a protein production outcome set (Wang et al. 2014)

Experiment: label from the status in PepcDB records

Sequence | protein production
MLLLHWDNMGKIELHHVFVMLSCIYLIFSDISINSAVVFLFSSIFFYISFTAGKRLYYLIGIDKENLKINLKKHYNFGIFLMIVGLIAVTSDLIWVKDVPLFNPLSRKFLNVYFTTLSHLFLVGWAIVVASSNIDKKKILLYTIIFSILIMLLGYRTNVLVLLISVGAILYYKNKISNREILKYGILVFVILLGLSILRLYALGVEGNPITSRISLTMSIYDIIFNNFNGVFNGYIHYSAVFSYLGLCNGARTVIAKTLGIYNVSITPTIVGAVIGDYGTLAIIPYFGILGIFLGFFYKLAKDVKGIYLGIYGILFAYTLIGIESGILDIDVILYYFFGLILCIYAILLRKLKR | failed
MQKRVVILLLDSFGIGASEDAKDFGDLGANTLGNIAKACFNNLADSNDRSGALKLPYLESLGLGLSALKAANELPLGFQSQPNLIGAYAYAQELSSAKDTISGHWEMMG | failed
MGEMTLAFIEEQYKELDNLNNKENPAVLTRNTATGELLVRKIIPISFAPVLEELKKLSSNYLPKIEVMIPNGSELIVYEEYINGKNLADLMKVNAPFDADEVTGLMLMLSDALTELHTNAIIHRDIKPSNIMISSDGVLKLIDFDASRVFEVGKNQDTVNLGTIGYAAPEQYGYSQTDARSDIYSIGVLMLELLRGKNNLPDKETATSLEKIAMQAASFDPEQRFQTIQEFRTAIKNDSLGPTFVSELTNLSDFATIEDSADEINWATSTDEYEKDFIPWYKHIPGFRTGHTWKMVVAVLGYIFMAFGLFTPPTEGVKMNNIENFFANFFLIFPAFIIFTNLCGIWSKLPLLKSSSKGTRKVGIVVYIFVCIMIYGIYTEIFS | failed
MNIKSAFIRKRGEKFYVYVEYIEETTGKIKQKSYGSYEKKKDAEKHLIEIKSTINNNKFVAPKDITFVERCYKYIDMNKNNWSPYTVTSTKSWVKNYIEPFFKNLKLTEVNPSSVQAFVNYNFNNSTFTSAKVRYSFLSSVIREAYRLREIQENSCDFIKLPSKEKYSTNEIYNREEVLLLIEKLLGNNIEIPILLMLLLGLRMGEATGLRWSDVDLDNNLINVNQILVYSNGKISFKEPKTPKSKRALSAPKELIEKLKIEKLRQSKLKLQGILENKNNLVCLNTNLNPFLPSSLRKTFHNFTKKNNLKKIRIHDLRHTSATLLLLGGTNMKVVSERLGHTDIKITMNRYSHVLKEMDKEASDNLSELLFK | failed
MRRLNRFKAPDEKVNTLFQVYKTISFWKVVKNTVVVEFGRFFPWMGGKRNIYRACLGMKIGKKTAIAYKVMPDLFFPEKITIGENSIIGYHTTILTHEYLLSEYHVGEVVIGKNVMVGANVTILPGIEIGDGAIVAAGAVVSKDVPPESFAYGNPLVIKEKAALEHHHHHH | not failed
MDEVLKEILSSYQKRALKLTKRVRKKIFKNDPTENQKKAIKIALNTPDIAIIQGPPGTGKTTVINAICERLFEEYPKDKNIKGQILLCAQGHDATNNARERIKVGGLPTFKFGAKKNAKEEQYKQDERLNERLREFAETLIESVRKKLQKLGDYENIEKILDLEEALRRYYSSPISELEFLKEIEKNESFF | failed
MKVNKRVLSIGLAISLIMAGAPNINALSSIEKIQGKDRYETAAKIAQKQTYENVVLVNTDNTLADGLSASGLAGTVKAPILLSQRNSIPSDTEKMLKDVKKVYIIGTEDSIGKSVENELKQKGIEVKRIGGNDRIETSYLIAKEIASIKPIDKVFITNGYTGEADAMSASSVASRDGAPIILTNGKNVPFEKKEGVQCYALGSEEIISNDLVKKTNSVRLAGEDRFETNKKVIKHFYSSAKEFYLSKGYQLVDAVAGSSIAKNAPIVLVDGNSDKSVLRSADKITALGGIDEKTLEQCLSASSLDASAPTITVGNLNIYQGDKFDISKLNIVAKDSNGNDLTPELIGNINTDKVGKYKVTIKATDIGGKTTSISVEVNVLEYKTNDMNSSEFKRMVSSEMYSLVNSYRKEKGKEPLQVSENLQGMANYWSKYMADKGEFAHVINGKNAAEVFSGGIRSEENIAFVPLTTKSTYTTKDAREVANVIFTVWKKSDKYNENMLSSKFAYTGFGLYILPDGQVYATQEFLNK | failed
MAEFPASLLILNGKSTDNLPLREAIMLLREEGMTIHVRVTWEKGDAARYVEEARKFGVATVIAGGGDGTINEVSTALIQCEGDDIPALGILPLGTANDFATSVGIPEALDKALKLAIAGDAIAIDMAQVNKQTCFINMATGGFGTRITTETPEKLKAALGSVSYIIHGLMRMDTLQPDRCEIRGENFHWQGDALVIGIGNGRQAGGGQQLCPNALINDGLLQLRIFTGDEILPALVSTLKSDEDNPNIIEGASSWFDIQAPHDITFNLDGEPLSGQNFHIEILPAALRCRLPPDCPLLR | not failed
